Experiment [1] addresses T1, human MSLN-R2-his protein (human, UniProt Q13421 391-486).
T1 construct: MSLN-R2 = Ser391-Asn486; also called hMSLN-R2-his; not shown: histidine tag
Put plainly: ELISA, antibody 0.01 nM.

Experiment [2] has as its target T2, human MSLN-R3-his protein (human, UniProt Q13421 487-598).
T2 construct: MSLN-R3 = Met487-Ser598; also called hMSLN-R3-his; not shown: histidine tag
Put plainly: ELISA, antibody 100 nM. A general note: In an ELISA, binding on a coated surface is turned into a signal by an enzyme label.

For experiment [3], the target named is T2, human MSLN-R3-his protein. Put plainly: ELISA, antibody 0.01 nM.
Experiment [4] concerns the target T2, human MSLN-R3-his protein. Put plainly: ELISA, antibody 0.001 nM.
Experiment [5] concerns the target T2, human MSLN-R3-his protein. Put plainly: ELISA, antibody 0.0001 nM.
Experiment [6] addresses T1, human MSLN-R2-his protein. In words: ELISA, antibody 100 nM.
For experiment [7], the target named is T1, human MSLN-R2-his protein. In words: ELISA, antibody 0 nM (blank).
The target of experiment [8] is T2, human MSLN-R3-his protein. In words: ELISA, antibody 0 nM (blank).
Experiment [9] deals with T1, human MSLN-R2-his protein. In words: ELISA, antibody 0.1 nM.
Experiment [10] deals with T1, human MSLN-R2-his protein. Put plainly: ELISA, antibody 10 nM.
Experiment [11] addresses T2, human MSLN-R3-his protein. In words: ELISA, antibody 10 nM.
The target in experiment [12] is T1, human MSLN-R2-his protein. Put plainly: ELISA, antibody 1 nM.
For experiment [13], the target named is T2, human MSLN-R3-his protein. Put plainly: ELISA, antibody 1 nM.
Experiment [14] has as its target T1, human MSLN-R2-his protein. In words: ELISA, antibody 0.001 nM.
For experiment [15], the target named is T1, human MSLN-R2-his protein. In words: ELISA, antibody 1 nM. This is another data set of the same source.
The target of experiment [16] is T2, human MSLN-R3-his protein. In words: ELISA, antibody 1 nM. This is another data set of the same source.
Experiment [17] has as its target T3, human MSLN-R3-3 polypeptide (purchased from GL Biochem, Cat. No. 406676) (human).
T3 construct: Printed as Val539-Val588; also called hMSLN-R3-3
T3 peptide: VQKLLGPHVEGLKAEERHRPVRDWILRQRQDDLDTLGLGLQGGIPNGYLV
Put plainly: ELISA, antibody 1 nM.

Experiment [18] has as its target T1, human MSLN-R2-his protein. Put plainly: ELISA, antibody 0.0001 nM.
Experiment [19] addresses T2, human MSLN-R3-his protein. In words: ELISA, antibody 0.1 nM.
Experiment [20] concerns the target T4, human MSLN-R3-his protein (human, UniProt Q13421 487-598).
T4 construct: also called hMSLN-R3-his; not shown: histidine tag
In words: ELISA, coated antigen, 1 nM antibody.

Experiment [21] has as its target T4, human MSLN-R3-his protein. In words: ELISA, coated antigen, 0.001 nM antibody.
Experiment [22] concerns the target T5, human MSLN-R2-his protein (human, UniProt Q13421 391-486).
T5 construct: also called hMSLN-R2-his; not shown: histidine tag
In words: ELISA, coated antigen, 0.2 nM antibody.

Experiment [23] deals with T4, human MSLN-R3-his protein. Put plainly: ELISA, coated antigen, 0.2 nM antibody.
For experiment [24], the target named is T4, human MSLN-R3-his protein. Put plainly: ELISA, coated antigen, 0.1 nM antibody.
Experiment [25] deals with T4, human MSLN-R3-his protein. In words: ELISA, coated antigen, 10 nM antibody.
The target of experiment [26] is T4, human MSLN-R3-his protein. Put plainly: ELISA, coated antigen, 0.01 nM antibody.
Experiment [27] has as its target T4, human MSLN-R3-his protein. Put plainly: ELISA, coated antigen, 0.0001 nM antibody.
For experiment [28], the target named is T4, human MSLN-R3-his protein. Put plainly: ELISA, coated antigen, 0 nM antibody (blank).
Experiment [29] deals with T5, human MSLN-R2-his protein. Put plainly: ELISA, coated antigen, 20 nM antibody.
Experiment [30] deals with T4, human MSLN-R3-his protein. Put plainly: ELISA, coated antigen, 20 nM antibody.
Experiment [31] addresses T4, human MSLN-R3-his protein. In words: ELISA, coated antigen, 100 nM antibody.
Experiment [32] concerns the target T6, chimeric human MSLN-R3 / chicken MSLN-R1-2 protein on HEK293T cells (clone A5) (chicken; human).
T6 construct: range 327-514; Human R1-R2 replaced by chicken R1-R2; also called HEK293T-chickR1-2/hR3-A5; HEK293T-hR3/chickR1-2-A5
Put plainly: FACS, HEK293T-hR3/chickR1-2-A5 cells, antibody 20 nM. For orientation: Flow cytometry measures light scatter and fluorescence of single cells or particles in a stream.

Experiment [33] deals with T6, chimeric human MSLN-R3 / chicken …. Put plainly: FACS, HEK293T-hR3/chickR1-2-A5 cells, antibody 0.2 nM.

Consider 4 molecules from patent US20240124563A1 (NANJING ZAIMING PHARMACEUTICAL, published 2024).

T6 sequence (Q13421 495-614, change not shown): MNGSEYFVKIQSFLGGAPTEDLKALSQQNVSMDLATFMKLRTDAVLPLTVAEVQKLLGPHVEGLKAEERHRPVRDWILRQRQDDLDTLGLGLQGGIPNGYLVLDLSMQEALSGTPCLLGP

B1: Tab020 (YP223, rabbitIgG1) (antibody, V domains shown)
VH: QEQLEESGGDLVQPEGSLTLTCKASGLDFSSSYWICWVRQAPGKGLEWIGCRHTFTANTWSASWVNGRFTISRSTSLGTVDLKMTSLTAADTATYFCARDESNNDGWDFKLWGPGTLVTVSS
VL: AYDMTQTPASVSAAVGGTVTIKCQASQSISNYLAWYQQKPGQPPKLLIYQASTLAPGVSSRFKGSGSGTEFTLTISGVECADAATYYCQQGYTSSNVENVFGGGTGVVVGD
notes: also called YP223 rabbit IgG1 antibody; rabbit anti-human MSLN antibody (Tab020)
Consider B1, for which the OD450 nm in experiment [1] stood at 0.07; in experiment [2], 0.05; in experiment [3] it was 0.05; in [4], 0.05; in [5], 0.05; in experiment [6], 2.5. Besides, the OD450 nm in experiment [7] was 0.05; in experiment [8], 0.05; in [9] it was 0.2; in experiment [10] it was 2.01; in [11] it was 0.05; in experiment [12], 1.49. In addition, the OD450 nm in [13] came to 0.05; in experiment [14] it was 0.05; in experiment [15] it was 1.49; in [16], 0.05; in experiment [17], 0.09; in [18] it was 0.05. The molecule also showed an OD450 nm in [19] of 0.05.

B2: Tab106 (YP218, hIgG1) (antibody, V domains shown)
VH: QQQLEESGGGLVKPEGSLTLTCKASGFDLGFYFYACWVRQAPGKGLEWIACIYTAGSGSTYYASWAKGRFTISKASSTTVTLQMTSLAAADTATYFCARSTANTRSTYYLNLWGPGTLVTVSS
VL: DVVMTQTPASVSEPVGGTVTIKCQASQRISSYLSWYQQKPGQRPKLLIFGASTLASGVPSRFKGSGSGTEYTLTISDLECADAATYYCQSYAYFDSNNWHAFGGGTEVVVRT
notes: also called YP218 human IgG1 antibody
In the case of B2, the OD450 nm in experiment [20] worked out at 0.22 OD450 nm; in experiment [21], 0.05 OD450 nm; in [22], 0.13 OD450 nm; in [23], 0.87 OD450 nm; in [24], 0.07 OD450 nm; in experiment [25], 1.04 OD450 nm. Also, the OD450 nm amounted to 0.05 OD450 nm in experiment [26]; 0.05 OD450 nm in experiment [27]; 0.05 OD450 nm in experiment [28]; 1.44 OD450 nm in experiment [29]; 1.89 OD450 nm in [30]; 1.81 OD450 nm in experiment [31].

B3: Tab106 (YP218, hIgG1) (antibody, V domains shown)
VH: QQQLEESGGGLVKPEGSLTLTCKASGFDLGFYFYACWVRQAPGKGLEWIACIYTAGSGSTYYASWAKGRFTISKASSTTVTLQMTSLAAADTATYFCARSTANTRSTYYLNLWGPGTLVTVSS
VL: DVVMTQTPASVSEPVGGTVTIKCQASQRISSYLSWYQQKPGQRPKLLIFGASTLASGVPSRFKGSGSGTEYTLTISDLECADAATYYCQSYAYFDSNNWHAFGGGTEVVVRT
notes: also called YP218 human IgG1 antibody; anti-human MSLN-R3 antibody (Tab106)
On to B3, for which the OD450 nm in [1] amounted to 0.04; in experiment [2] it was 2.29; in [3], 0.06; in [4] it was 0.05; in experiment [5], 0.05; in experiment [6], 0.7. Also, the OD450 nm in [7] came out at 0.05; in experiment [8] it was 0.05; in [9], 0.05; in experiment [10] it was 0.11; in experiment [11], 1.75; in experiment [12] it was 0.05. The OD450 nm in [13] was 0.62; in experiment [14], 0.04; in experiment [15], 0.05; in [16], 0.62; in experiment [17], 0.98; in experiment [18] it was 0.04. This molecule came in with an OD450 nm in [19] of 0.12.

B4: Tab106 (YP218, hIgG1) (antibody, V domains shown)
VH: QQQLEESGGGLVKPEGSLTLTCKASGFDLGFYFYACWVRQAPGKGLEWIACIYTAGSGSTYYASWAKGRFTISKASSTTVTLQMTSLAAADTATYFCARSTANTRSTYYLNLWGPGTLVTVSS
VL: DVVMTQTPASVSEPVGGTVTIKCQASQRISSYLSWYQQKPGQRPKLLIFGASTLASGVPSRFKGSGSGTEYTLTISDLECADAATYYCQSYAYFDSNNWHAFGGGTEVVVRT
notes: as for B2
With B4, the results for the MFI in [32] and in experiment [33] were 17900 and 767, respectively.
